Patent publication US20180339041A1 (Kyowa Kirin, published 2018)

What was measured:
[1] = target: T1, C-terminally FLAG-tagged mouse Gas6 recombinant protein (mGas6-F) (mouse, UniProt Q61592 28-674, limits assumed, gamma-carboxylated glutamic acid residues in the Gla domain (producer cells co-express rat VKOR and human GGCX); positions not given); assay: ELISA: mGas6-F (1 µg/mL) captured on coated anti-FLAG M2 antibody; biotinylated test antibody; streptavidin-HRP/TMB; absorbance 450-570 nm, N=2 (Example 6) [D]
T1 construct: also called mouse Gas6-F
T1 sequence (looked up): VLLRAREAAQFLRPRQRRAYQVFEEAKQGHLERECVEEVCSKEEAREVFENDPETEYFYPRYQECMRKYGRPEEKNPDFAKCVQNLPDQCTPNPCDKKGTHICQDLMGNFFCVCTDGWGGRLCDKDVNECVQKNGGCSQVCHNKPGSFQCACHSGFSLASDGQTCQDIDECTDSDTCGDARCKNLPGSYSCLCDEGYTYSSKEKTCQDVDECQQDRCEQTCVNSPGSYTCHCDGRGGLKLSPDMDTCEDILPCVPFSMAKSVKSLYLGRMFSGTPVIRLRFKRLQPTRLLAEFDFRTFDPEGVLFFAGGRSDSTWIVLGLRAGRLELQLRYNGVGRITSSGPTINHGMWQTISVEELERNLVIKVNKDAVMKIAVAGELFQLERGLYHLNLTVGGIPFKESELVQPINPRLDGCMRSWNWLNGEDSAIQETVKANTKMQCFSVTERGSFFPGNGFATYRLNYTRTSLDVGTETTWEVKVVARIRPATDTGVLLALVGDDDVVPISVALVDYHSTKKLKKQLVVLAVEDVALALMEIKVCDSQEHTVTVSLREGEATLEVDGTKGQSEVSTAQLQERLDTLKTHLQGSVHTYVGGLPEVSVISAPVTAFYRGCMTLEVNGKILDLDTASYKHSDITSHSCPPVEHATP
Protocol: (§1) First, 2 μg/mL anti-FLAG antibody [Monoclonal ANTI-FLAG M2 antibody produced in mouse (manufactured by Sigma-Aldrich Co. LLC) diluted with PBS (manufactured by Nacalai Tesque, Inc.)] was dispensed at 50 μL/well to a 96-well plate for ELISA (manufactured by Nalge Nunc International), and the plate was left standing overnight at 4° C. for adsorption. After removal of the immobilization solution, 1% BSA-PBS (manufactured by Nacalai Tesque, Inc.) was added thereto at 300 μL/well, and the plate was left standing at room temperature for 1 hour for blocking and washed five times with Tween 20-PBS (manufactured by Wako Pure Chemical Industries Ltd.).
(§2) Each antibody solution was dispensed thereto at 50 μL/well, and the plate was left standing at room temperature for 1 hour. This plate was washed five times with Tween 20-PBS. Then, Streptavidin HRP Conjugate (manufactured by R&D Systems, Inc.) diluted 200-fold with 1% BSA-PBS was dispensed thereto at 50 μL/well, and the plate was left standing at room temperature for 1 hour. This plate was washed five times with Tween 20-PBS, and TMB (manufactured by Sigma-Aldrich Co. LLC) was added thereto at 50 μL/well and reacted. […] The absorbance at a sample wavelength of 450 nm and a reference wavelength of 570 nm (450 nm-570 nm) was measured using a plate reader.

[2] = target: T2, C-terminally FLAG-tagged cynomolgus monkey Gas6 recombinant protein (cGas6-F) (cynomolgus monkey, UniProt Q14393 31-678 (human entry), gamma-carboxylated glutamic acid residues in the Gla domain (producer cells co-express rat VKOR and human GGCX); positions not given); assay: ELISA: cGas6-F (1 µg/mL) captured on coated anti-FLAG M2 antibody; biotinylated test antibody; streptavidin-HRP/TMB; absorbance 450-570 nm, N=2 (Example 6) [B]
T2 construct: also called cynomolgus monkey Gas6-F; monkey Gas6-F
T2 chain: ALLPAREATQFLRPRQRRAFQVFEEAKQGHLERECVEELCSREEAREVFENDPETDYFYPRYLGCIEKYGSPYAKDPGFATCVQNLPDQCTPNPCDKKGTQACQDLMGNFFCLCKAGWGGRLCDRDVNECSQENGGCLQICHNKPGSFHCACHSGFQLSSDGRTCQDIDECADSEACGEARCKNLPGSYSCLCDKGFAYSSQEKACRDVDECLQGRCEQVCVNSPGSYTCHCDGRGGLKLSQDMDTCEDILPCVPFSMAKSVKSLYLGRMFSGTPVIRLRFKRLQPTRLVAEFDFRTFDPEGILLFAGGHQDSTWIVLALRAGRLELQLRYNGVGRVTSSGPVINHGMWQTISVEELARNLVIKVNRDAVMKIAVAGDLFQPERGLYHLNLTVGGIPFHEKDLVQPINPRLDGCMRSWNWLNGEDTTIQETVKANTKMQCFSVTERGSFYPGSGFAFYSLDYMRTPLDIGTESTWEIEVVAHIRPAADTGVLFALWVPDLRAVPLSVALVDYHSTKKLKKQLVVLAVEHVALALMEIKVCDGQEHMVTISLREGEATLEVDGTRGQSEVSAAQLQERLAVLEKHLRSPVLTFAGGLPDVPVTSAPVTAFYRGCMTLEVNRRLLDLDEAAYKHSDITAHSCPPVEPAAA
Protocol: as §1, §2

[3] = target: T3, C-terminally FLAG-tagged human Gas6 recombinant protein (hGas6-F) (human, UniProt Q14393 31-678, gamma-carboxylated glutamic acid residues in the Gla domain (producer cells co-express rat VKOR and human GGCX); positions not given); assay: cell-based or functional assay
T3 sequence: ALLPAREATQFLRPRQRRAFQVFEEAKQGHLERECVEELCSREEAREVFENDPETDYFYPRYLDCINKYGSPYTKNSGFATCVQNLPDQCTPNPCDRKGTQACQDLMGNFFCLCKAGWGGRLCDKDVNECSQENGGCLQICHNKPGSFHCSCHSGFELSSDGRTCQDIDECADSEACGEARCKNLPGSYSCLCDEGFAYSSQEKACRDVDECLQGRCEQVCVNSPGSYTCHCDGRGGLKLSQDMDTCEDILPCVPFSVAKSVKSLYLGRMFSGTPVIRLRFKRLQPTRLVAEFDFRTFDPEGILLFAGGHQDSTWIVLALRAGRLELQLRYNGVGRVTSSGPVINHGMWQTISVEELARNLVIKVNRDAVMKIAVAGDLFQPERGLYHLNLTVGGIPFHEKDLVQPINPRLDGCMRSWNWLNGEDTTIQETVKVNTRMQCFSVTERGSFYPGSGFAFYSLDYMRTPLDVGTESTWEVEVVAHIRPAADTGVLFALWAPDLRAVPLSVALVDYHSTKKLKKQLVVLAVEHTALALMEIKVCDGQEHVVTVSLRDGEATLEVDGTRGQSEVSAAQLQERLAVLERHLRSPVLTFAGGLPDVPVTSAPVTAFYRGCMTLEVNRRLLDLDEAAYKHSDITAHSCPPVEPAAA

B1: anti-human Gas6 mouse monoclonal antibody KM5320 (KM5320-mKG1 antibody) (antibody, V domains shown)
VH: QIQLVQSGPELKKPGETVKISCKASGYTFTNYGMNWVKQAPGKGLKWMGWINTETGEPTYSDDFKGRFAFSLETSATTAYLQINNLRNEDMATYFCAREDGYYGTLDYWGQGTSVTVSS
VL: SIVMTQTPKFLLVSAGDRVTITCKASQSVSNDVAWYQQKPGQSPKVLIYYASNRYTGVPDRFTGSGYGTDFTFTISTVQAEDLAVYFCQQDYSSPWTFGGGTKLEIK
notes: Hybridoma-derived mouse IgG1, kappa; also called KM5320 antibody
For B1, the “EC50 (read off the curve)” value [1] was about 3 ng/mL, the “EC50 (read off the curve)” value [2] was about 4 ng/mL and the “antibody:Gas6 molar concentration ratio at complete inhibition of reporter activation” value [3] was 2 antibody:Gas6 molar ratio.

B2: anti-human Gas6 mouse monoclonal antibody KM5321 (KM5321-mKG1 antibody) (antibody, V domains shown)
VH: QIQLVQSGPELKKPGETVKISCRASGYTFTNYGMNWVKQAPGKGLKWMGWINTNTGEPTYTEEFKGRFAFSLETSATTAYLQINDLKNEDTATYFCARDEGWFVYWGQGTLITVSA
VL: ETTVTQSPASLSVATGEKVTIRCITSTDIDDDMNWYQQKPGEPPKLLISEGNTLRPGVPSRFSSSGYGTDFVFTIENTLSEDVADYYCLQTDSVPLTFGAGTKLELK
notes: Hybridoma-derived mouse IgG1, kappa; also called KM5321 antibody
With B2 the “EC50 (read off the curve)” value [1] was about 4 ng/mL, the “EC50 (read off the curve)” value [2] was about 4 ng/mL and the “antibody:Gas6 molar concentration ratio at complete inhibition of reporter activation” value [3] was 2 antibody:Gas6 molar ratio.
